Experimental data as given in paper PMC7150476.

Target: STAT3 (UniProt P40763)
Assay: co-immunoprecipitation, Flag/Myc tags, Western blot
Conditions: reference: wild-type PLSCR1-2Flag; sites Y69,Y74

binding against the reference: weaker
Substance: PLSCR1 (from UniProt O15162) PLSCR1-Y69,74F-2Flag
